Data as given in patent US20220363777A1 (GSP ENTERPRISE, published 2022).

Experiments:
[1] = target: T1, extracellular domain of human Cripto-1, soluble form, with N-terminal His-tag (human, limits assumed); assay: screening of a phage-displayed human antibody library
T1 construct: Prepared in soluble form by the method of Alam et al., Int J Mol Sci 2018; also called purified human Cripto-1; CR-1
T1 chain: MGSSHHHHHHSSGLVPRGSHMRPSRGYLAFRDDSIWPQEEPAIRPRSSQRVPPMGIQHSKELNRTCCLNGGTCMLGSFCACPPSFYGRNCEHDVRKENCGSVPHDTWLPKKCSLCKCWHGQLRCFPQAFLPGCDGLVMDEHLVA
Method: The extracellular domain of human Cripto-1 contains the amino acid sequence represented by SEQ ID NO: 11, and has a His-tag sequence having the amino acid sequence represented by SEQ ID NO: 12 at its N-terminus. The extracellular domain of human Cripto-1 was prepared in its soluble form in accordance with the method disclosed in Alam. et. al., Int J Mol Sci. 2018, 26; 19 (11). The antibody library used as a screening target is described in Sakai, K. et al., Biochemistry 46 (1): 253-62, and the subclass of the antibody is IgG.

[2] = target: T2, human Cripto-1 in human cancer tissue (tissue array BCN801) (human, UniProt P13385 31-150, GPI-anchor (thought to be bound to the cell membrane surface by GPI-anchors)); assay: immunostaining of a human cancer tissue array, ALEXA568-labeled anti-human IgG secondary antibody
T2 construct: whole, on cells; Endogenous protein detected by immunostaining of pancreas, thyroid, prostate, stomach, cervical, colorectal and breast cancer tissue; also called CR-1
T2 sequence (looked up): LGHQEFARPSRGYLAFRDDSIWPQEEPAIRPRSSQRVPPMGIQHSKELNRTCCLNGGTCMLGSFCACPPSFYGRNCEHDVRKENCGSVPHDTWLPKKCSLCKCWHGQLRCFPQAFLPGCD
Method: Immunostaining was performed on a human cancer tissue array (BCN801, US Biomax Inc.). The #35 clone was used as a primary antibody. ALEXA568-labeled anti-human IgG goat antibody (Invitrogen) was used as a secondary antibody to detect human Cripto-1 in each cancer tissue (pancreas cancer tissue, thyroid gland cancer tissue, prostate cancer tissue, stomach cancer tissue, cervical cancer tissue, colorectal cancer tissue, and breast cancer tissue). These cancer tissues contained cancer stem cells as well as cancer cells, and Cripto-1 was thought to be bound to the surface of the cell membrane of the cancer stem cells by GPI-anchors. In a negative control experiment, the signal background was confirmed by using only the secondary antibody. FIGS. 3 to 5 show the results.

B1: #35 clone antibody (human-derived anti-human Cripto-1 monoclonal antibody) (antibody, V domains shown)
VH: QVQLQQSGPGLVKPSQTLSLTCAISGNSVSSNSAAWNWIRRSPSRGLEWLGRTYYRSKWYNDYAVSVKSRITIKPDTSKNQFSLQLNSVTPEDTAMYYCARGFCSGGRCYSFDYWGPGTLVTVSS
VL: QSVLTQPASVSGSPGQSITISCTGTDSDVGAYGSASWYRHSPGKAPQLIIYDVTNRPSGVSNRFYGSKSGNTASLTISGLQAEDEADYYCQAWDSGIHVVFGGGTQLTVLG
notes: The library subclass is IgG; also called Clone #35
Q: Does B1 bind [1]?
A: binds

Q: Does B1 bind [2]?
A: binds
